This is an account of results in PMC10182836.

The target of this assay is H3-tailless nucleosomes (nucleosomes with the first 33 residues of H3 removed) (human) (UniProt P04908).

For the substance “Cbf1ΔN (residues 209–351) (from UniProt P17106 209-351) (domain or fragment)”, the fold reduction of S1/2 on H3-tailless nucleosomes stood at 1.3 fold. To “Pho4ΔN (AA 250–312) (from UniProt P07270 250-312) (domain or fragment)” belongs 3.1 fold.
